Paper PMC3137622, “Mechanisms of Allergen-Antibody Interaction of Cockroach Allergen Bla g 2 with Monoclonal Antibodies That Inhibit IgE Antibody Binding” (PLoS ONE, 2011)

Target: T1, natural Bla g 2 (Blattella germanica, UniProt P54958)
T1 construct: Glycosylated natural allergen; also called nBla g 2; natural allergen
Assay: ELISA; two-site dose-response: mAb 7C11 or 4C3 as capture antibody, allergen titrated, detection with biotinylated mAb 4C3 (21 nM) or 7C11 (4 nM), respectively, or polyclonal antibody (53 nM)
Conditions: both partners purified

T1 sequence (P54958 whole entry, looked up): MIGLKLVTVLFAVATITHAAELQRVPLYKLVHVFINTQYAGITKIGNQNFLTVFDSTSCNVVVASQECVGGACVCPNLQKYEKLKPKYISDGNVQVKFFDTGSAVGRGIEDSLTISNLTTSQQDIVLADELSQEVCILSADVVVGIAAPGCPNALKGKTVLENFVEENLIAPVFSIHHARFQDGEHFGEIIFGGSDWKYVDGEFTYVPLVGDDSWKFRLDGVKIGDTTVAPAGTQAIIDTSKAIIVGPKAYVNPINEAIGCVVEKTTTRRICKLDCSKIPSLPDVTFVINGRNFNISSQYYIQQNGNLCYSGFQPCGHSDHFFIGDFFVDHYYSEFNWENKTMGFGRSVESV

B1: monoclonal antibody 4C3 (anti-Bla g 2) (antibody, V domains shown)
VH: EVQLVESGGGLVQPGGSLKLSCAASGFTFSSFAMSWGRQTPDKRLELVATINSNGASTYYPDTVKGRFTISRDNAKNTLFLQMSSLKSEDTAMYYCTRDPAGRAWFAYWGQGTLVTVSA
VL: QIVLTQSPSSMYASLGERVTITCKASQDINNYLSWFQQKPGKSPKTLIYRADRLVDGVPSRVSGSGSGQDYSLTISSLEYEDLGIYYCLQYDELPYTFGGGTKLEIK
notes: the Fab of mAb 4C3 stands in PDB 3liz (complex with Bla g 2), heavy chain; the Fab of mAb 4C3 stands in PDB 3liz (complex with Bla g 2), light chain; Whole mAb in the assays; the PDB entry holds only the Fab fragment; also called mAb 4C3; biotinylated mAb 4C3
B1: binds.

B2: monoclonal antibody 7C11 (anti-Bla g 2) (antibody, V domains shown)
VH: EIQLQQSGAELVKPGASVKLSCTASGFNIKDTYIHWVKQRPEQGLEWIGRIDPANGNTRYGPKFLGKATITADTSSNTAYLHLNSLTSEDTAVYFCARWVRQMDYWGQGTSVTVSS
VL: DIVMTQSHKFMSTSVGDRVSITCKASQIVSTAVAWYQQKPGQSPKLLIYSASYRYTGVPDRFTGSGSGTDFTFTISSVQAEDLAVYYCQQHYNSPQTFGGGTKLEIK
notes: the Fab' of mAb 7C11 stands in PDB 2nr6 (complex with Bla g 2), heavy chain; the Fab' of mAb 7C11 stands in PDB 2nr6 (complex with Bla g 2), light chain; Whole mAb in the assays; the PDB entry holds only the Fab' fragment; also called mAb 7C11; biotinylated mAb 7C11
B2: binds.
